# Measured values: the supplement of paper PMC9112550, “Optimization of the antimicrobial peptide Bac7 by deep mutational scanning” (BMC Biology, 2022)
# Tested on: Escherichia coli TOP10
# Test: shrunken log2 fold change of peptide-encoding DNA abundance (4.5 h post-induction vs induction); higher = less antimicrobial activity (less host growth inhibition)
# Settings: time post-induction: 4.5 h; library: site-saturation at positions 5, 18, 19, 20
# 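Note: peptides expressed intracellularly from a pBAD plasmid library in pooled LB shake-flask culture, induced with 0.3% L-arabinose, DNA abundance read by NGS, three biological replicates, DESeq2 with apeglm shrinkage.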
row,Sequence,shrunken log2 fold change
1,RRIRCRPPRLPRPRPRPMHLPRP,0.0527
2,RRIRMRPPRLPRPRPRPFWEPRP,0.0748
3,RRIRLRPPRLPRPRPRPTSSPRP,-0.178
4,RRIRARPPRLPRPRPRPCWTPRP,0.01
5,RRIRERPPRLPRPRPRPNSWPRP,-0.0404
6,RRIRDRPPRLPRPRPRPIQNPRP,0.0608
7,RRIRSRPPRLPRPRPRPWTQPRP,0.149
8,RRIRFRPPRLPRPRPRPWEEPRP,-0.159
9,RRIRHRPPRLPRPRPRPMCLPRP,-0.0755
10,RRIRERPPRLPRPRPRPNINPRP,-1.05
11,RRIRGRPPRLPRPRPRPPWLPRP,0.849
12,RRIRIRPPRLPRPRPRPDRLPRP,-0.453
13,RRIRSRPPRLPRPRPRPRCNPRP,0.124
14,RRIRDRPPRLPRPRPRPHICPRP,-0.205
15,RRIRHRPPRLPRPRPRPDTRPRP,-0.0709
16,RRIRFRPPRLPRPRPRPIQFPRP,-0.000317
17,RRIRERPPRLPRPRPRPGNFPRP,-0.0564
18,RRIRTRPPRLPRPRPRPTMIPRP,-0.413
19,RRIRGRPPRLPRPRPRPLNPPRP,0.215
20,RRIRERPPRLPRPRPRPIQIPRP,-0.103
21,RRIRKRPPRLPRPRPRPLSMPRP,0.0129
22,RRIRWRPPRLPRPRPRPMRFPRP,0.00175
23,RRIRCRPPRLPRPRPRPKHSPRP,-0.401
24,RRIRDRPPRLPRPRPRPRHRPRP,0.375
25,RRIRGRPPRLPRPRPRPIMQPRP,0.105

row,Sequence,shrunken log2 fold change
1,RRIRARPPRLPRPRPRPWCRPRP,0.0486
2,RRIRIRPPRLPRPRPRPGKFPRP,-0.0679
3,RRIRLRPPRLPRPRPRPNYTPRP,-0.91
4,RRIRMRPPRLPRPRPRPHMTPRP,0.342
5,RRIRIRPPRLPRPRPRPTKEPRP,0.0462
6,RRIRWRPPRLPRPRPRPKTTPRP,-0.0128
7,RRIRERPPRLPRPRPRPQKRPRP,0.462
8,RRIRMRPPRLPRPRPRPIINPRP,-0.0492
9,RRIRKRPPRLPRPRPRPRVAPRP,1.11
10,RRIRARPPRLPRPRPRPPAKPRP,1.12
11,RRIRNRPPRLPRPRPRPTARPRP,0.198
12,RRIRIRPPRLPRPRPRPQSAPRP,0.0313
13,RRIRYRPPRLPRPRPRPMSTPRP,-0.0213
14,RRIRRRPPRLPRPRPRPCGWPRP,0.776
15,RRIRNRPPRLPRPRPRPWRTPRP,-0.323
16,RRIRWRPPRLPRPRPRPEPMPRP,0.38
17,RRIRERPPRLPRPRPRPCHCPRP,-0.344
18,RRIRRRPPRLPRPRPRPKPFPRP,0.655
19,RRIRLRPPRLPRPRPRPLTVPRP,0.127
20,RRIRERPPRLPRPRPRPEVFPRP,0.0133
21,RRIRHRPPRLPRPRPRPGKHPRP,-0.362
22,RRIRTRPPRLPRPRPRPTMMPRP,-0.14
23,RRIRCRPPRLPRPRPRPDEHPRP,-0.417
24,RRIRGRPPRLPRPRPRPMYHPRP,-0.242
25,RRIRHRPPRLPRPRPRPLWEPRP,0.0119

row,Sequence,shrunken log2 fold change
1,RRIRCRPPRLPRPRPRPDGAPRP,0.129
2,RRIRVRPPRLPRPRPRPWRDPRP,0.202
3,RRIRRRPPRLPRPRPRPWVAPRP,0.219
4,RRIRFRPPRLPRPRPRPFMKPRP,1.71
5,RRIRMRPPRLPRPRPRPHSEPRP,0.134
6,RRIRDRPPRLPRPRPRPGPRPRP,0.787
7,RRIRTRPPRLPRPRPRPGILPRP,-0.0375
8,RRIRTRPPRLPRPRPRPGTNPRP,-0.0901
9,RRIRTRPPRLPRPRPRPLHMPRP,-0.369
10,RRIRLRPPRLPRPRPRPRQTPRP,1.27
11,RRIRDRPPRLPRPRPRPQYKPRP,-0.121
12,RRIRCRPPRLPRPRPRPIHHPRP,-0.481
13,RRIRLRPPRLPRPRPRPECEPRP,0.147
14,RRIRRRPPRLPRPRPRPTDYPRP,-0.00271
15,RRIRQRPPRLPRPRPRPHLGPRP,-0.00552
16,RRIRARPPRLPRPRPRPAWTPRP,-0.0258
17,RRIRKRPPRLPRPRPRPFNMPRP,0.0229
18,RRIRTRPPRLPRPRPRPDPEPRP,0.155
19,RRIRVRPPRLPRPRPRPAQEPRP,0.0593
20,RRIRPRPPRLPRPRPRPRIVPRP,-0.0281
21,RRIRDRPPRLPRPRPRPCWFPRP,-0.0292
22,RRIRVRPPRLPRPRPRPIIHPRP,-0.809
23,RRIRMRPPRLPRPRPRPQPMPRP,0.838
24,RRIRYRPPRLPRPRPRPGFKPRP,-0.579
25,RRIRMRPPRLPRPRPRPMKYPRP,0.0979
